Assay [1] deals with T1, CD70-hFc complex (extracellular domain of human CD70 fused with the Fc region of human IgG1) (human) (UniProt P32970).
T1 sequence (looked up): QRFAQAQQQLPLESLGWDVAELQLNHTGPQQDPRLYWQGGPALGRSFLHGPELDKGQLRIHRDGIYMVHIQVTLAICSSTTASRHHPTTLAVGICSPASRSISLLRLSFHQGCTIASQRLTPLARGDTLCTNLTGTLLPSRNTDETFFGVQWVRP
The experiment in a line: flow cytometry, CD70-hFc at 2 ug/mL on NK71-transduced Jurkat cells (about 16% NK71 positive; the cells also carry endogenous CD27). For orientation: Flow cytometry measures light scatter and fluorescence of single cells or particles in a stream.

Assay [2] deals with T1, CD70-hFc complex (extracellular domain of human CD70 fused with the Fc region of human IgG1) (human). The experiment in a line: flow cytometry, CD70-hFc at 10 ug/mL on NK71-transduced Jurkat cells (about 16% NK71 positive; the cells also carry endogenous CD27).
The target in assay [3] is T2, CD27 (endogenous, on Jurkat cells) (UniProt P26842 20-260, limits assumed).
T2 construct: whole, on cells; also called the ligand for CD70
Nature of the assay: flow cytometry, CD70-hFc at 2 or 10 ug/ml on native Jurkat cells, anti-human Fc-APC detection. On the procedure: FIGS. 27A-27F show data related to the ability of anti-CD70 CAR-expressing Jurkat cells to bind human bind CD70. […] Moving left to right are negative control, control for the antibody to human Fc, binding when 2 ug/ml of a CD70-hFc complex is incubated with the Jurkat cells and binding is detected with the human Fc-APC antibody, and binding when 10 ug/ml of a CD70-hFc complex is incubated with the Jurkat cells and binding is detected with the human Fc-APC antibody. […] Moving left to right is a control for the antibody to murine Fc, binding when 2 ug/ml of a CD70-murine Fc complex is incubated with the Jurkat cells and binding is detected with a murine Fc-APC antibody, and binding when 10 ug/ml of a CD70-murine Fc complex is incubated with the Jurkat cells and binding is detected with the murine Fc-APC antibody, and detection of Flag tag (present in the NK71/72 CAR constructs, but not native Jurkat cells). […] Moving left to right are negative control, control for the antibody to human Fc, binding when 2 ug/ml of a CD70-hFc complex is incubated with the Jurkat cells and binding is detected with the human Fc-APC antibody, and binding when 10 ug/ml of a CD70-hFc complex is incubated with the Jurkat cells and binding is detected with the human Fc-APC antibody. […]

T2 sequence (P26842 20-260 limits assumed): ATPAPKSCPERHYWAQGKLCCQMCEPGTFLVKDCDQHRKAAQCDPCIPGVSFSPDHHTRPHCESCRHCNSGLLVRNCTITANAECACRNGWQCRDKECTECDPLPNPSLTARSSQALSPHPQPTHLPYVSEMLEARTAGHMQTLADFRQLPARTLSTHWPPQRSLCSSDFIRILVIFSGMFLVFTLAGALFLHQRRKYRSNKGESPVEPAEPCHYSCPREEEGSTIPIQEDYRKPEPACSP

B1: NK71 anti-CD70 CAR (scFv, not shown: a dimerising Fc or GST; small tags and cut ends)
scFv: QVTLKESGPVLVKPTETLTLTCTVSGFSLSNARMGVTWIRQPPGKALEWLAHIFSNDEKSYSTSLKSRLTISKDTSKTQVVLTMTNMDPVDTATYYCARIRDYYDISSYYDYWGQGTLVSVSSGGGGSGGGGSGGGGSDIQMTQSPSAMSASVGDRVTITCRASQDISNYLAWFQQKPGKVPKRLIYAASSLQSGVPSRFSGSGSGTEFTLTISSLLPEDFATYYCLQLNSFPFTFGGGTKVEIN
With B1, the percent of Jurkat cells binding CD70 is 50% in assay [1] and over 80% in assay [2].

B2: CD70-hFc complex (extracellular domain of human CD70 fused with the Fc region of human IgG1) (Fc fusion, UniProt P32970 39-193, looked up)
chain: T1 sequence (looked up)
notes: range 39-193; Soluble reagent added at 2 or 10 ug/ml and detected with an anti-human Fc-APC antibody; not shown: Fc region of human IgG1, at the N-terminus of the fusion
Consider B2, for which, in assay [3], the binding result is on record as “binds”.

The values above are taken from patent US20240360234A1 (NKARTA, published 2024).
